How the values were obtained:
[1] = system: T1, CC(=O)Oc1ccc([N+](=O)[O-])cc1; experiment: purified protein; assay type: biochemical, Serratia sp. HZ15; conditions: pH 8.5, 50 mM Tris-HCl, 10 °C, 0.01-0.3 mM substrate
T1 construct: full-length 302 residues, no signal peptide predicted; GST fusion (pGEX-6P-1) in E. coli BL21 (DE3), GST cut off by 3C protease; ~32 kDa

purified protein = substrate: CC(=O)Oc1ccc([N+](=O)[O-])cc1; experiment: purified protein; assay type: biochemical, Serratia sp. HZ15; conditions: pH 8.5, 50 mM Tris-HCl, 10 °C, 0.01-0.3 mM substrate

Molecule	Km [1]	kcat [1]	kcat/Km [1]	Km (purified protein)	kcat (purified protein)	kcat/Km (purified protein)
EstS (Serratia sp. HZ15; A43V/D147N/R116W)	87.59 ± 2.4 µM	2500 s⁻¹	2.86e+07 ± 3.7e+06 M⁻¹ s⁻¹			
EstS (Serratia sp. HZ15) (protein, full-length 302 residues, no signal peptide predicted; GST fusion (pGEX-6P-1) in E. coli BL21 (DE3), GST cut off by 3C protease; ~32 kDa) MPLDPQIARFLAEAAQAPAPASLSEMREVAHAGLLALQGEAEASGGVRDGWVTADDGRAIAIRAYTPGGATPGEPLPAMLYAHGGGWCLGSLALYDRPCQALANATGRVILSVDYRLAPEYPYPRPLEDVYQALCGVVERADEWGVDVARMAVGGDSAGGNLAAAVALLARDRKGPQIEHQLLLYPALSRAMDTASYKEYAQGYYLTREVMAFCWNTYLGEADKPQDPYAEPLHAPMLQRLPPATILSCEYDPLRDEAELYAKRLQEAGVAVRCERLPGMVHACIHMLGLTPAARVLFDKVG				74.02 ± 1.9 µM	2340 s⁻¹	3.16e+07 ± 3.1e+06 M⁻¹ s⁻¹

Source: article PMC4722774, “Characterization of a cold-active esterase from Serratia sp. and improvement of thermostability by directed evolution” (BMC Biotechnology, 2016)
